Source: patent US20180066068A9, “ANTI-PSYK ANTIBODY MOLECULES AND USE OF SAME FOR SYK-TARGETED THERAPY” (Millennium Pharmaceuticals, Inc., priority 2014, published 2018)

What was measured:
DLBCL cell lines = assay: Inhibition of cellular proliferation; format: cell-based; settings: expanded set of relevant models; 72 hours of treatment, DLBCL cell lines (FIG. 21)
[1] = system: pSYK, pBLNK, cleaved caspase 3 in PHTX-95L primary DLBCL xenografts; assay: Pharmacodynamics by IHC in PHTX-95L xenografts; format: in vivo, NOD SCID mice
[2] = system: pSYK in TMD8 lymphoma cell line xenograft; assay: Pharmacodynamics by IHC in TMD8 xenografts; format: in vivo, mice; settings: single oral dose 120 mg/kg, two hours after dosing; MIL81-1-8 hybridoma and molecular clone antibodies
[3] = target: T1, pSYK in DLBCL patient samples and normal lymph node (Homo sapiens, UniProt P43405); assay: IHC of molecular clone versus hybridoma antibody on human biopsies; format: binding
T1 construct: from tissue; host or cells: FFPE human DLBCL biopsies; one normal lymph node
Protocol: The molecular clone antibody also was assessed by IHC. The immunohistochemical staining of antibody purified from MIL81-1-8 hybridoma supernatant as described above was compared to staining by MIL81-1-8 3H3/3L2 clone antibody purified from culture supernatant of transiently co-transfected HEK293 cells (also one-step purification-protein A chromatography followed by buffer exchange).
Both the molecular clone and the hybridoma antibodies stained HBL1 to a moderate extent and strongly stained PHTX95L untreated samples. […] The molecular clone antibody was compared to the hybridoma antibody for staining biopsies of human tissues. There were three DLBCL patient samples and one normal lymph node sample (non-tumorigenic) from a patient. […] If nuclear staining would be considered off-target and lead to a determination of absence of pSYK, then a version of MIL81-1-8, with less nuclear relative to cytoplasmic or membranous staining could lead to fewer false negative results.

GST-pSYK (IVK) = target: T2, GST-pSYK (IVK) (Homo sapiens, UniProt P43405); assay: Western blot on autophosphorylated GST-pSYK (IVK); format: binding; settings: GST-tagged recombinant SYK, compared with untreated
T2 construct: made in house; host or cells: baculovirus-infected Sf9 cells
Protocol: GST-hSYK was expressed in baculovirus-infected Sf9 cells and affinity-purified by glutathione Sepharose affinity resin. For in vitro kinase (IVK) pSYK, isolated GST-SYK was incubated in 1 mM ATP, 1 mM MgCl2 for 1 hr at room temperature to allow autophosphorylation to occur. The reaction was stopped by the addition of 5 mM EDTA and a small aliquot removed for treatment with 0.1% SDS, stored […] and used for AlphaScreen analysis or stored at −80° without further purification. This sample was later used at Epitomics for screening assays of hybridoma. An aliquot of the sample was analyzed by SDS-PAGE for Western blotting using anti-SYK (Cell Signaling Technologies #2712) and Epitomics 2175-1. The majority of the recombinant material was confirmed to be phosphorylated at Y525/526.
(§1) Western blots were prepared from SDS-PAGE gels of GST-pSYK (IVK), and phosphatase-treated GST-pSYK. Each hybridoma multiclone supernatant was tested for binding to the blots. […] By this method, multiclone hybridoma supernatants with good binding of phosphorylated relative to dephosphorylated pSYK were 1, 2, 19, 24, 39, 49, 52, 53, 55, 59, 63, 70, 81, 84, 85, 87, 98 and 99.

[4] = target: T3, pSYK in human DLBCL biopsies (Homo sapiens, UniProt P43405); assay: IHC of human DLBCL biopsies, AMP HQ versus Leica IHC; format: binding
T3 construct: from tissue; host or cells: FFPE human DLBCL biopsies; one normal lymph node
Protocol: Antibodies were incubated with OmniMap goat anti-rabbit HRP secondary antibody (Ventana Medical Systems) for 16 minutes. A Discovery AMP TSA HQ kit (Ventana Medical Systems) was applied for 16 minutes followed by 16 minute incubation with the Discovery anti-HQ HRP (Ventana Medical Systems) antibody. The staining was then developed with the 3,3′-diaminobexidine (DAB) substrate map system. Slides were counterstained with hematoxylin and imaged using the Aperio whole slide scanning system (XT). A comparative staining was obtained with the MIL81-1-8 3H3/3L2 antibody using an automated protocol on a Leica automated stainer. pSYK protein levels in Formalin-Fixed, Paraffin-Embedded tissues were incubated with MIL81-1-8 3H3/3L2 antibody ([…]) for 30 minutes on the Leica Microsystems (Wetzlar, Germany) BOND RX automated stainer. Antibodies were incubated with a rabbit anti-goat HRP secondary antibody (Leica Laboratories) and developed with the 3,3′-diaminobexidine (DAB) substrate map system. Slides were counterstained with hematoxylin and imaged using the Aperio whole slide scanning system (XT). The staining of the AMP HQ and the Leica IHC were compared to determine staining specificity. […] Each was scored either positive (membrane stain was found) or negative (no membrane staining was found). […]

[5] = target: T4, phosphatase-treated GST-pSYK (de-pSYK) (Homo sapiens, UniProt P43405); assay: Western blot on phosphatase-treated GST-pSYK; format: binding; settings: GST-tagged recombinant SYK
T4 construct: made in house; host or cells: baculovirus-infected Sf9 cells
Protocol: Some of the autophosphorylated GST-pSYK was treated with T-cell protein phosphatase (TC-PTP, New England Biolabs), a tyrosine-specific phosphatase, for confirming specificity of antibodies to pSYK.
as §1

[6] = target: T5, SYK in lysates of WSU-DLCL2 cells (Homo sapiens, UniProt P43405); assay: Western blot of cell lysates, WSU-DLCL2; format: binding; settings: lysate of stimulated cells
T5 construct: endogenous in cells; host or cells: WSU-DLCL2 cells, unstimulated or stimulated (BCR crosslinking or pervanadate)
Protocol: Additional cell culture material was used to screen antibodies by utilizing WSU-DLCL2 (human diffuse large B-cell lymphoma) cells that were stimulated through crosslinking the B-cell receptor (AffiniPure F(ab′)^2 fragment of goat anti-human Ig, cat #109-006-127, JacksonImmuno Research Laboratories, Inc., West Grove, Pa.) or with pervanadate treatment (25 μL into 1 mL of cells of the following; 50 μL Na3VO4, 5.5 μL 9.1M H2O2(31%), 944.5 μl H2O) over a 60 min time course. At each time point cells were collected and lysed in MPER (Thermo: 7850) containing both a protease inhibitor cocktail I (Calbiochem:539131-10VL) and 1× HALT a generic protein phosphatase inhibitor cocktail (Thermo: 78428). Also LY10 (OCI-LY10) cells were used as lysates without or with stimulation with cross-linking or pervanadate as described above. Ly10 cells have weak SYK expression compared to WSUDLCL2 cells (FIG. 1). […] (BLNK was detected in every sample by CST 3575 and SC15345 antibodies, with the pBLNK detection paralleling the pSYK detection in the crosslinked and pervanadate-treated cells.) One conclusion of this study extended the nucleic acid results, and found weak pSYK signal in the Ly10 crosslinked sample. […]

[7] = single dose 120 mg/kg, IHC of tumors harvested over time

Nuclear staining intensity compared to hybridoma antibody ([3]; human biopsies)	Samples deemed positive (membrane stain) out of 82 ([4]; AMP HQ amplified IHC, 1:10,000 dilution)	Samples deemed positive (membrane stain) out of 82 ([4]; Leica IHC, 1:3200 dilution)	Western blot staining of phosphatase-treated recombinant SYK [5]	Binding to SYK on western blot, stimulated WSU-DLCL2 cells [6]	Molecule	EC50 (DLBCL cell lines) [nM]	cleaved caspase 3 expression [1, 7]	pBLNK (pBLNK65) expression time course [1, 7]	pSYK (pSYK525) expression time course [1, 7]	pSYK stain in PHTX95L xenograft after treatment ([1]; single oral dose 120 mg/kg, two hours after dosing, MIL81-1-8 hybridoma and molecular clone antibodies)	pSYK stain in TMD8 xenograft after treatment [2]	Overall IHC comparison with hybridoma antibody ([3]; cell pellets, xenografts and human biopsies)	Western blot staining of IVK-treated recombinant SYK (GST-pSYK (IVK))
					Cn1cc(-c2nc(N[C@@H]3CCCC[C@@H]3N)c(F)c3c2C(=O)NC3)cn1 [Compound A, 6-((1R,2S)-2-Aminocyclohexylamino)-7-fluoro-4-(1-methyl-1H-pyrazol-4-yl)-1H-pyrrolo[3,4-c]pyridin-3(2H)-one]	25 to 4000	increase in expression	Time dependent inhibition	Time dependent inhibition	diminished	diminished		
remarkably reduced	34	24	slightly stained	stained the band	MIL81-1-8 3H3/3L2: recombinant molecular clone of MIL81-1-8; heavy chain SEQ ID NO:4, light chain SEQ ID NO:6, from transfected HEK293 cells (antibody) heavy: METGLRWLLLVAVLKGVQCQSVEESGGRLVTPGTPLTLTCTVSGIDLNSYIMSWVRQAPGKGLEWIGIISRRGNTYYASWPKGRFTISKTSTTVDLKITSPTTEDTATYFCARAYLYTSGTMSVWGPGTLVTVSSGQPKAPSVFPLAPCCGDTPSSTVTLGCLVKGYLPEPVTVTWNSGTLTNGVRTFPSVRQSSGLYSLSSVVSVTSSSQPVTCNVAHPATNTKVDKTVAPSTCSKPTCPPPELLGGPSVFIFPPKPKDTLMISRTPEVTCVVVDVSQDDPEVQFTWYINNEQVRTARPPLREQQFNSTIRVVSTLPIAHQDWLRGKEFKCKVHNKALPAPIEKTISKARGQPLEPKVYTMGPPREELSSRSVSLTCMINGFYPSDISVEWEKNGKAEDNYKTTPAVLDSDGSYFLYSKLSVPTSEWQRGDVFTCSVMHEALHNHYTQKSISRSPGK light: MDTRAPTQLLGLLLLWLPGARCADIVMTQTPSPVEAAVGGTVTIKCQASESISSYLSWYQQKPGQPPKLLIYRASTLVSGVPSRFKGSGSGTDFTLTISDLECADAATYYCQHTYFGSDYVGGFGGGTEVVVKGDPVAPTVLIFPPAADQVATGTVTIVCVANKYFPDVTVTWEVDGTTQTTGIENSKTPQNSADCTYNLSSTLTLTSTQYNSHKEYTCKVTQGTTSVVQSFNRGDC							slightly better than the hybridoma antibody	stained the IVK-treated SYK band more intensely than the untreated SYK band
